Experimental data taken from IntAct's records for PubMed 34502139.

B1: Mitochondrial import receptor subunit TOM70 (Homo sapiens), O94826 (parent)
chain: MAASKPVEAAVVAAAVPSSGSGVGGGGTAGPGTGGLPRWQLALAVGAPLLLGAGAIYLWSRQQRRREARGRGDASGLKRNSERKTPEGRASPAPGSGHPEGPGAHLDMNSLDRAQAAKNKGNKYFKAGKYEQAIQCYTEAISLCPTEKNVDLSTFYQNRAAAFEQLQKWKEVAQDCTKAVELNPKYVKALFRRAKAHEKLDNKKECLEDVTAVCILEGFQNQQSMLLADKVLKLLGKEKAKEKYKNREPLMPSPQFIKSYFSSFTDDIISQPMLKGEKSDEDKDKEGEALEVKENSGYLKAKQYMEEENYDKIISECSKEIDAEGKYMAEALLLRATFYLLIGNANAAKPDLDKVISLKEANVKLRANALIKRGSMYMQQQQPLLSTQDFNMAADIDPQNADVYHHRGQLKILLDQVEEAVADFDECIRLRPESALAQAQKCFALYRQAYTGNNSSQIQAAMKGFEEVIKKFPRCAEGYALYAQALTDQQQFGKADEMYDKCIDLEPDNATTYVHKGLLQLQWKQDLDRGLELISKAIEIDNKCDFAYETMGTIEVQRGNMEKAIDMFNKAINLAKSEMEMAHLYSLCDAAHAQTEVAKKYGLKPPTL
B2: Mitochondrial import receptor subunit TOM70 (Homo sapiens), O94826 (parent)
chain: B1 chain
partner: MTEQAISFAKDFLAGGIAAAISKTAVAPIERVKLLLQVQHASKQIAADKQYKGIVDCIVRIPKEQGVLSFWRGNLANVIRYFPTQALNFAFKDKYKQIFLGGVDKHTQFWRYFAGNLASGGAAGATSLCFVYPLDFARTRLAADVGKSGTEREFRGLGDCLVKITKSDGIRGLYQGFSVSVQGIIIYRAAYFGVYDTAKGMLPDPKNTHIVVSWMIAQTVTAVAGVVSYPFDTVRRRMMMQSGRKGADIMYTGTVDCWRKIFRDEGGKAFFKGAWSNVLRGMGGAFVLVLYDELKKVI

Variants of: B1
Conditions: with hs90b_human HSP90AB1, P08238
Chain of hs90b_human HSP90AB1, P08238 (P08238 whole entry): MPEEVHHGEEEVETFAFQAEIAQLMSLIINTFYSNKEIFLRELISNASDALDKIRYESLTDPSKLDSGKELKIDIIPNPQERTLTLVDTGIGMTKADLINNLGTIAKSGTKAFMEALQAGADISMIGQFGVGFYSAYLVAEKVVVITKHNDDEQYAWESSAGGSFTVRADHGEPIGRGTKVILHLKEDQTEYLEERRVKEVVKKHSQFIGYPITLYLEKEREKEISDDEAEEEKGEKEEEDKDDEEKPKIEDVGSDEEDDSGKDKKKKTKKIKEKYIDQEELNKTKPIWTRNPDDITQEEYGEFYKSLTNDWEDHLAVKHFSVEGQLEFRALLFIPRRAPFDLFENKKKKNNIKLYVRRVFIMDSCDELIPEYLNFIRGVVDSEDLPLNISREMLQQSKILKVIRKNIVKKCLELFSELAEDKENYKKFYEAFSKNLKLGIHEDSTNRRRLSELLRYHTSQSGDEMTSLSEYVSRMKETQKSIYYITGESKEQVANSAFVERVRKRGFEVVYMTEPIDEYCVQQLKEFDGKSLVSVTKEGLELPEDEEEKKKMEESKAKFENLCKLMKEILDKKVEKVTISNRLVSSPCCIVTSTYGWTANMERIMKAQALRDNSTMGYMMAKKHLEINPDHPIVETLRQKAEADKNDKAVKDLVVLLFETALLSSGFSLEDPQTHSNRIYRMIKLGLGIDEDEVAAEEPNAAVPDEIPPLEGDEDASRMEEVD

Row | Variant | effect of a mutation on the interaction
1 | R192A | decreasing interaction strength
2 | E477A | decreasing interaction strength

Variants of: B2
Conditions: with adt3_human SLC25A6, P12236

Row | Variant | effect of a mutation on the interaction
3 | E477A | decreasing interaction strength
